From EP1314779B1 come the findings set out here.

Read-outs that look alike come from different tables or passages of the source.

The target of assay [1] is proEGF on the surface of NCI-H292 cell membranes (human) (UniProt P01133). Briefly: flow cytometry on NCI-H292 cells, background staining with normal mouse IgG1.
Assay [2] shares this target. The description is as above. This is another data set of the same source.

Chain of UniProt P01133 (P01133 23-1207): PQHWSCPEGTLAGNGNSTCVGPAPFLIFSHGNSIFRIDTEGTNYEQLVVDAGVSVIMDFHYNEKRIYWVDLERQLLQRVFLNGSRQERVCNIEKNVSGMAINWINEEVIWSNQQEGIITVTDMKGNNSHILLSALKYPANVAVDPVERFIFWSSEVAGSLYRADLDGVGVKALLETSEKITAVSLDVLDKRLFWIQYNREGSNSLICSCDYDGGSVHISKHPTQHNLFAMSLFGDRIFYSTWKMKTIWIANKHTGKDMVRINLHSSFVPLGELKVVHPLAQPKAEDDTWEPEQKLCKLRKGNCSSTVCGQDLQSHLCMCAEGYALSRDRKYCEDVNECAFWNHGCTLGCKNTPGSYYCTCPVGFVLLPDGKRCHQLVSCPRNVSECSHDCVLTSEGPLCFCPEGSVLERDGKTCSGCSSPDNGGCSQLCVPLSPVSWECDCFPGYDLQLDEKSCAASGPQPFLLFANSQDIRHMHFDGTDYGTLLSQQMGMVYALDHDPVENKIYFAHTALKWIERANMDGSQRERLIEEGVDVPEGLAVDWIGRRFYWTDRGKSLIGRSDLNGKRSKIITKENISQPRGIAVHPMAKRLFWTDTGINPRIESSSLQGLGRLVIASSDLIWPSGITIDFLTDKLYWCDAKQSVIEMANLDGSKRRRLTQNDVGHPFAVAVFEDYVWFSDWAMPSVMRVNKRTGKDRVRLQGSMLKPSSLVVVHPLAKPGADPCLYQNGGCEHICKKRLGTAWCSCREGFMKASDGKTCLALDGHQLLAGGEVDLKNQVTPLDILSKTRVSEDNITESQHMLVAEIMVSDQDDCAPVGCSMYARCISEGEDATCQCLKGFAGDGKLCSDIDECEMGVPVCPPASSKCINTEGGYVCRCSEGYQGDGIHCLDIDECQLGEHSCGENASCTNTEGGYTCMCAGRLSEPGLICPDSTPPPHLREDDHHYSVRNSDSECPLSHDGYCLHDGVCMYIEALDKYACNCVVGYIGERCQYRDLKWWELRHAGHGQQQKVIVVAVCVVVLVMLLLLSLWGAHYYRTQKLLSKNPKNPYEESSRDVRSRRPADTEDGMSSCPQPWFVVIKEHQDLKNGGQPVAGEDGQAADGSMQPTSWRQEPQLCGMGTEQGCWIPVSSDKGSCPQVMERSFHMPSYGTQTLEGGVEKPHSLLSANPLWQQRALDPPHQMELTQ

Take “normal mouse IgG1 (produced by R&D Corp.) (antibody)”: the values for the average fluorescence intensity in assay [1] and in assay [2] were 4.62 and 8.44, respectively.
